The values that follow come from paper PMC10724265 (2023).

Where no end group is shown, it is not given here.

For experiment [1], the target named is T1, LC3B (UniProt Q9GZQ8 1-120). In words: ITC; phosphorylated LIR peptide.
In experiment [2] the target is T1, LC3B. In words: ITC.

B1: synthetic FAM134C-LIR peptide, phosphorylated form (peptide)
chain: LDTDAEGDDFELLDQSELSQ
modifications: also: phosphorylated close to the LIR motif, residues not given here
In turn, B1 showed a dissociation constant Kd in experiment [1] of 180 nM.

B2: synthetic FAM134C-LIR peptide, non-phosphorylated form (peptide)
chain: LDTDAEGDDFELLDQSELSQ
modifications: synthetic peptide, non-phosphorylated; the exact peptide limits are not printed in the text (figure/supplement); limits taken as the UniProt LIR motif 445-450 plus 7 flanking residues on each side; terminal chemistry unknown
For B2, the affinity in experiment [2], expressed as Kd, was 1030 nM.
